Source: patent publication EP0480381A1 (NIPPON CHEMIPHAR CO., LTD., dated 1992)

T1: rat endothelin receptor (rat)
T1 sequence (P26684 whole entry, looked up): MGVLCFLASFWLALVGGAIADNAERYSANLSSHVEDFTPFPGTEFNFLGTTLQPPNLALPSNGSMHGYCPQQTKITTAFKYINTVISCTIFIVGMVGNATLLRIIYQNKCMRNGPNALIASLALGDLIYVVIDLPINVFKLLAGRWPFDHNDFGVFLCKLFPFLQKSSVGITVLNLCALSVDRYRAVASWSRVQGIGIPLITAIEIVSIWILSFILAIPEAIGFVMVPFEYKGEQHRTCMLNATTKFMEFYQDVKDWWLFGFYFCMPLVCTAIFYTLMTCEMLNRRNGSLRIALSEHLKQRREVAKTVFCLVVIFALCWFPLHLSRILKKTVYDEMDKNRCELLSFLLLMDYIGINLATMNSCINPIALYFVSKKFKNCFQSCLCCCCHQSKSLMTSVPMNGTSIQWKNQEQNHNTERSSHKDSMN

B1: endothelin-1 (peptide, UniProt P05305 53-73, looked up)
peptide: CSCSSLMDKECVYFCHLDIIW
B2: endothelin-3 (peptide, UniProt P14138 97-117, looked up)
peptide: CTCFTYKDKECVYYCHLDIIW

Biological target: T1, rat endothelin receptor
Experiment: cell-based or functional assay

Binder | increase of calcium concentration in cytoplasm (fura-2), EC50 [nM]
B1 | ~0.02
B2 | ~0.02
